# Measurements taken from publication PMC12483565, “CBFβ-SMMHC–driven leukemogenesis requires enhanced RUNX1-DNA binding affinity in mice”.
# Target: RUNX1c-R201Q (human, UniProt Q01196-8 1-480, R201Q)
# Assay: EMSA; BLI: 20 mM Tris-HCl pH 8.0, 150 mM KCl, 1 mM EDTA, 1 mM DTT, 0.02% Tween-20, with 800 nM CBFβ or 400 nM CBFβ-SMMHC/mutant, preincubated 37 °C 30 min; EMSA: room temperature 30 min, 4-12% TBE gel, 1x TBE
# Settings: protein: ivt; label: IRDye700
# Chain of RUNX1c-R201Q (Q01196 other isoform, or with tags, fused parts or gaps R201Q | R201Q R201Q): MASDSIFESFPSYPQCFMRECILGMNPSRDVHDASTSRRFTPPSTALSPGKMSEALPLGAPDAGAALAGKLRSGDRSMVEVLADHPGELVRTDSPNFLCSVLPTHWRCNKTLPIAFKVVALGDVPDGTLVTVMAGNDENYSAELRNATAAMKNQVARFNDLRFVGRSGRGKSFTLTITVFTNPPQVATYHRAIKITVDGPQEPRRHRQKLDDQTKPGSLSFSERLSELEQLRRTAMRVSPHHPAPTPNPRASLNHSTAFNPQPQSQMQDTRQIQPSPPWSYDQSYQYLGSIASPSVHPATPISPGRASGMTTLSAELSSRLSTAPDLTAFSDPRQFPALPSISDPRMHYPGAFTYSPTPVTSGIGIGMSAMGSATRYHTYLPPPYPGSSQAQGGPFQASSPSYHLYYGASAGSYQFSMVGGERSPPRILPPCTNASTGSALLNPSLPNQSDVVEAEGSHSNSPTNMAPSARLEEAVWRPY
binder,measurement,value
CSF1R promoter probe (EMSA) (dsDNA) DNA 1: CAAACTCTGTGGTTGCCTTG DNA 2: CAAGGCAACCACAGAGTTTG,binding result,no binding
